{"source": "patent US20240352102A1", "binders": {"B1": {"name": "mAb TRC35 (antibody, V domains shown)", "VH": "QVQLQQPGTELVKPGASVKLSCKASGYTFTSYWLQWVKQRPGQGLEWIGEIDPSDSYTNYNQKFKGKATLTVDTSSSTAYMQLSSLTSEDSAVYYCATLTGSWGQGTTLAVSS", "VL": "DVLLTQTPLSLPVSLGDQASISCRASQSIVDSNGNTFLEWYLQKSGQSPKVLIYKVSNRFSGVPDRFSGRGSGTDFTLKISRVEAEDLGVYYCFQGSHVPYTFGGGTKLEIK"}}, "test_in_all_cases": "peptide microarray", "key": {"Peptide_051": {"molecular_target": "T1, Peptide_051", "T1 sequence (peptide)": "RTPPKSPSSAKSRLQ"}, "Peptide_060": {"molecular_target": "T2, Peptide_060", "T2 sequence (peptide)": "LKHQPGGGKVQIINK"}, "Peptide_059": {"molecular_target": "T3, Peptide_059", "T3 sequence (peptide)": "STENLKHQPGGGKVQ"}, "Peptide_061": {"molecular_target": "T4, Peptide_061", "T4 sequence (peptide)": "PGGGKVQIINKKLDL"}}, "note": "“And” between values parts separate entries of the source, which are not always exact repeats. Equal entries are not always repeated.", "data": [{"binder": "B1", "values": [{"measurement": "fluorescence intensity", "setting": "Peptide_051", "value": "151 and 83.3"}, {"measurement": "fluorescence intensity", "setting": "Peptide_060", "value": "793 and 655"}, {"measurement": "fluorescence intensity", "setting": "Peptide_059", "value": "204 and 126"}, {"measurement": "fluorescence intensity", "setting": "Peptide_061", "value": "157 and 114"}]}]}
